Positions count from the first letter of the chain named.
T1: His-tagged cynomolgus monkey B7-H3 (cynomolgus monkey)
T1 chain: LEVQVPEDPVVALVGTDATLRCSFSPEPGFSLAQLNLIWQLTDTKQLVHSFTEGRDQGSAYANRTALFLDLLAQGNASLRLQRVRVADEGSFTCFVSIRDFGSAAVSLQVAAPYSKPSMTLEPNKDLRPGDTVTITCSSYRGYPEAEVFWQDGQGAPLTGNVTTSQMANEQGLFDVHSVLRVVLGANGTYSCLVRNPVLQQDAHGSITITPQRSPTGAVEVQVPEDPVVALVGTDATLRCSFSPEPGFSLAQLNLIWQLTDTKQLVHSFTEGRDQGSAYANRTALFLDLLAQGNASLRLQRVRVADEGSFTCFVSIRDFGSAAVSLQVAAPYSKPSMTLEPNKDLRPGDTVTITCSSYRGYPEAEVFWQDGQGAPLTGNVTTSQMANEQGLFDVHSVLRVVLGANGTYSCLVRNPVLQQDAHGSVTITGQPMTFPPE

T2: His-tagged mouse B7-H3 (mouse, UniProt Q8VE98 29-244, limits assumed)
T2 construct: Bought His-tagged protein coated on the ELISA plate; also called mu B7-H3; murine B7-H3
T2 sequence (looked up): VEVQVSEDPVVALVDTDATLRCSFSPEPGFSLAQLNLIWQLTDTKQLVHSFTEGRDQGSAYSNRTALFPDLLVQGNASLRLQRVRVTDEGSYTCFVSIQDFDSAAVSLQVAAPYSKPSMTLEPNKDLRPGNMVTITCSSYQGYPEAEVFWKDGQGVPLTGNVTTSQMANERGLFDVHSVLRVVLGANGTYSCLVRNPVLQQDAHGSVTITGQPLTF

T3: His-tagged human B7-H3 (human, UniProt Q5ZPR3-2 29-245, limits assumed)
T3 construct: Bought His-tagged protein coated on the ELISA plate; also called hu B7-H3; CD276
T3 sequence (looked up): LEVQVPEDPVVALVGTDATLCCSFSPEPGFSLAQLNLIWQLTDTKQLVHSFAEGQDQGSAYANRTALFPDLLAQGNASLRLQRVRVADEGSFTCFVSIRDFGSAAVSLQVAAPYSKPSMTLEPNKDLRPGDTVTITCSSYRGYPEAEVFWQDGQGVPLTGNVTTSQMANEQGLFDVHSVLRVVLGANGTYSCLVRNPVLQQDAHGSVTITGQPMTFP

T4: B7-H3 on CHO-K1 cells stably transfected with B7-H3 (GenScript #M00536) (UniProt Q5ZPR3 29-534, limits assumed)
T4 sequence (looked up): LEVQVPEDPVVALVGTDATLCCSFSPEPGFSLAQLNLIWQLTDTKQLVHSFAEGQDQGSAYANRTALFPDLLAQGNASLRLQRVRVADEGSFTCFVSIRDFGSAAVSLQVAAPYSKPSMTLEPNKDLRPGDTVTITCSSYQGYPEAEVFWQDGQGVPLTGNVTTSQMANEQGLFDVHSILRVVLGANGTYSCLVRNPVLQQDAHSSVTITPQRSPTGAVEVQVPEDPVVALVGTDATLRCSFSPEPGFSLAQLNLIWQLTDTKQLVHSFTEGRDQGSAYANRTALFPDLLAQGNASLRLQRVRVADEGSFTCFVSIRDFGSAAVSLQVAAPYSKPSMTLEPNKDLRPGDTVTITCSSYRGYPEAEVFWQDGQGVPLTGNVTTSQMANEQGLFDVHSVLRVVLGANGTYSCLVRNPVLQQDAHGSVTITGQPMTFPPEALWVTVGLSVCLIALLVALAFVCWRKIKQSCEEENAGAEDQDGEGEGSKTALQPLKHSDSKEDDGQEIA

T5: B7-H3 on B7-H3-expressing CHO cells (Genescript) (UniProt Q5ZPR3 29-534, limits assumed)
T5 construct: whole, on cells; also called CHO-K1/B7-H3; MFI B7-H3
T5 sequence (looked up): T4 sequence (looked up)

B1: 40633p1.2.C11 (scFv, V domains shown)
VH: EVQLLESGGGLVQPGGSLRLSCAASGFTFSSYWMSWVRQAPGKGLEWVAGINRNGGSTYYADSVKGRFTISRDNSENTLYLQVNSLRAEDTAVYYCARWNDYDIMDVWGQGTTVTVSS
VL: QSVLTQPSSASGTPGQRVTISCSGSSSNVGRRAVNWYQQLPGTAPKLLISNSQRPSGVPDRFSGSKSGTSASLAISGLQSEDEADYYCATWDASLNSWVFGGGTKLTVL
notes: Tested as scFv-Fc (Expi293 supernatant)
B2: 40511p1.1.A1 (scFv, V domains shown)
VH: DVQLVESGGGVVRPGESLRLSCAASGFTFSNYAMNWVRQAPGEGLEWVSRINYKGYNITYYADSVKGRFTISRDNSKNTLYLQMNSLRAEDTAVYYCAKSGSNSNNFFDYWGLGTLVTVSS
VL: EIVLTQSPGTLSVSPGERATLSCRASQSVNSKLAWYQQRPGQAPRLLIYDASSRATGIPDRFSGSGSGTDFTLTISRLEPEDFAVYYCQQYKNWPPLTFGGGTKVEIK
notes: as for B1
B3: 40633p1.1.G7 IgG (antibody, V domains shown)
VH: EVQLLESGGGLVQPGGSLRLSCAASGFTFSGSAMNWVRQAPGKGLEWVSAINSGGTTIYYADSVKGRFTVSRDNSKNTLYLQMNSLRAEDTAVYYCVKLDFYYGMDVWGEGTTVTVSS
VL: QSVVTQPPSASGTPGQRVTVSCSGSSSNVGSKYVQWYQQLPGTAPKLLIYATDRRPSGVPDRFSGSKSGTSASLAISGLQSEDEADYYCASWDDSLNAWVFGGGTKLTVL
B4: 40633p1.1.G11 IgG (antibody, V domains shown)
VH: EVQLLESGGGLVQPGGSLRLSCAASGFTVSYYGMSWVRQAPGKGLEWVSVIKQDGSEEYYADSVKGRFTISRDNSKNTLYLQMNSPRAEDTAVYYCARHWNDYSNGMNVWGQGTTVTVSS
VL: QSVLTQPPSASGTPGQRVTISCSGSTSNVGDRYVYWYQQLPGTAPKLLIYLDDQRPSGVPDRFSGSKSGTSASLAISGLQSEDEADYYCASWDASLNGWVFGGGTKLTVL
B5: 40633p1.2.A10 IgG (antibody, V domains shown)
VH: B4 VH with P86L
VL: B4 VL
B6: 40633p1.2.C3 IgG (antibody, V domains shown)
VH: B4 VH with V50A, E58K, P86L, G106A, G111E
VL: B4 VL with T26N, D31G, R32N, Y35S, L51R, D52N, D53S, D86V
B7: 40633p1.2.D11 IgG (antibody, V domains shown)
VH: EVQLESGGGLVQPGGSLRLSCAASGFTVSYYGMSWVRQAPGKGLEWVSAIKQDGSEKYYADSVKGRFTISRDNSKNTLYLQMNSLRAEDTAVYYCARHWNDYSNAMNVWGQGTTVTVSS
VL: B4 VL with V29I, G30A, D31I, R32D, Y33F, Y35N, L51T, D52I, D86V, G103R
B8: 40633p1.1.G5 IgG (antibody, V domains shown)
VH: B4 VH with T28I, S30N, A40P, V50A, E58K, N77T, P86L
VL: QSVLTQPPSASGTPGQRVTISCSGSWSNIGSYNSHWYQKLPGTAPKLLIYTTDRRPSGVPDRFSGSKSGTSASLAISGLQSEDEADYYCGTWDDSLNVWVFGGGTKLTVL
B9: 40633p1.2.D1 IgG (antibody, V domains shown)
VH: EVQLLESGGGLVQPGGSLRLSCAASGFTFDVYGMSWVRQAPGKGLEWVSAINWNGGSTYYADSVKGRFTISRDNSENTLYLQMNSLRAEDTAVYYCAKEKWKHFIYYGMDVWGQGTTVTVSS
VL: QSVLTQPASASGTPGQTVSISCSGSSSNIDSNTANWYQQLPGTAPKLLIYSNNQRPSGVPDRFSGSKSDTSASLAISGLQSEDEGDYYCSAWDDNLNGWLFGGGTKLTVL
B10: 40633p1.2.C11 IgG (antibody, V domains shown)
VH: B1 VH
VL: B1 VL
B11: 40633p1.2.D7 IgG (antibody, V domains shown)
VH: B1 VH with G10S, A49S, N52S, R53S, N54S, G56S, S57A, E76K, V83M
VL: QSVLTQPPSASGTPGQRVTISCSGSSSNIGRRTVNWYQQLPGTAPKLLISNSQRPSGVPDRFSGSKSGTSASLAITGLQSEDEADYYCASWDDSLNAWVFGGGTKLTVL
B12: 40633p1.1.H11 IgG (antibody, V domains shown)
VH: EVQLLESGGGLVQPGGSLRLSCAASGFTFSSYPMTWVRQAPGKGLEWVADINSGGGTTLYADAVKGRFTISRDNSKNIVYLQMNSLRGEDTAVYYCAKHLDYYSYGMDVWGQGTTVTVSS
VL: QSVLTQPPSASGTPGQRVTISCSGVTSKIGSKYVHWYQQLPGTAPKLLIYRNFERPSGVPDRFSGSTSGTSASLAISGLQSEDEADYYCATWEGALNGWVFGGGTKLTVL
B13: 40633p1.1.F2 IgG (antibody, V domains shown)
VH: EVQLLESGGGLVQPGGSLRLSCVASGLTFNGFAMTWVRQAPGKGLEWVSGISWNSGSIYYADSVKGRFTISRDNSKNTVYLQMSSLRAEDTAIYYCAKNWNDYYNSMDVWGQGTTVTVSS
VL: QSVLTQPPSASGTPGQRVTISCSGSRSNIGTKYVYWYQQFPGTAPKLLIYTTDRRPSGVPDRFSGSKSGTSASLAISGLQSEDEADYYCSAWDDRLNAWVFGGGTKLTVL

Target: T1, His-tagged cynomolgus monkey B7-H3
Assay: ELISA, coated His-tagged antigen, scFv-Fc 1 ug/ml
Experimental: (§1) The variable regions of heavy and light chains were cloned and assembled into a single chain Fv-Fc (ScFv-Fc) mammalian expression vector. Sanger sequencing was performed by GeneWiz and sequences were evaluated using DNASTAR Lasergene 15. Unique scFv-Fes were transiently expressed in Expi293 cells (Life Technologies, #A14527) grown in Expi293 Expression Medium (Life Technologies, #A1435101) after transfection using the ExpiFectamine transfection reagent and supplements (Life Technologies, #A14524). Cells were incubated for 3-5 days with shaking at 37° C. in a 5% CO2 humidified incubator.

Binder | ELISA OD450 @ 1 ug/ml
B1 | 0.045 OD450
B2 | 2.27 OD450

Each binder was assayed against T2, His-tagged mouse B7-H3 (assay: ELISA, coated His-tagged antigen, scFv-Fc 1 ug/ml).
Experimental: as §1

Binder | ELISA OD450 @ 1 ug/ml
B2 | 1.02 OD450

What follows are binders tested against T3, His-tagged human B7-H3 (assay: ELISA, coated His-tagged antigen, scFv-Fc 1 ug/ml).
Experimental: as §1

Binder | ELISA OD450 @ 1 ug/ml
B2 | 1.9 OD450

The binders below were run against T4, B7-H3 on CHO-K1 cells stably … (assay: cell-based or functional assay).

Binder | ADCC reporter assay, EC50 Value, CHOK1/B7-H3 cells | ADCC reporter assay, Max RLU, CHOK1/B7-H3 cells
B3 | 0.0419 µg/mL | 656000 RLU
B4 | 0.0344 µg/mL | 725000 RLU
B5 | 0.0471 µg/mL | 762000 RLU
B6 | 0.402 µg/mL | 490000 RLU
B7 | 0.107 µg/mL | 510000 RLU
B8 | 0.18 µg/mL | 452000 RLU
B9 | 0.0216 µg/mL | 676000 RLU
B10 | ~1.56 µg/mL | 94400 RLU
B11 | 0.0213 µg/mL | 820000 RLU
B12 | 0.0412 µg/mL | 798000 RLU
B13 | 0.0214 µg/mL | 519000 RLU

The binders below were run against T5, B7-H3 on B7-H3-expressing CHO cells … (assay: flow cytometry, B7-H3-expressing CHO cells, 10 ug/ml).
Experimental: Binding of anti-B7-H3 antibodies to cell lines was assessed by flow cytometry. Briefly, approximately 1.5 e5 B7-H3-expressing CHO cells (Genescript) or parent CHO cells (ATCC) were resuspended in FACS buffer (PBS/1% BSA/0.01% NaN3) containing 10 μg/ml of anti-B7-H3 antibodies and incubated for 60 min on ice. […] Cells were then washed twice, resuspended in FACS buffer, and read on an Attune Flow Cytometer (Life Technologies). Data are expressed as Mean Fluorescent Intensities (MFI).

Binder | MFI @ 10 ug/ml
B1 | 18300 MFI
B2 | 34100 MFI

These binders were tested against T3, His-tagged human B7-H3 (assay: ELISA OD450 on hu B7-H3 over OD450 on mu B7-H3).
Experimental: as §1

Binder | hu:mu ratio
B2 | 1.87

— patent publication US20260008852A1 (CRYSTAL BIOSCIENCE, published 2026)
